Results published in PMC11596305, “A strategy to design protein-based antagonists against type I cytokine receptors” (PLOS Biology, 2024).

B1: Thrombopoietin (TPO), bacterially expressed (ligand)
chain: SPAPPACDLRVLSKLLRDSHVLHSRLSQCPEVHPLPTPVLLPAVDFSLGEWKTQMEETKAQDILGAVTLLLEGVMAARGQLGPTCLSSLLGQLSGQVRLLLGALQSLLGTQLPPQGRTTAHKDPNAIFLSFQHLLRGKVRFLMLVGGSTLCVRRAPPTTAVPS
modifications: expressed in E. coli, non-glycosylated; N-terminal His tag/thrombin site omitted / The construct is described only in S1 Methods. The extracellular domain after the signal peptide is assumed as the …
B2: Thrombopoietin receptor (TPOR) (receptor)
chain: QDVSLLASDSEPLKCFSRTFEDLTCFWDEEEAAPSGTYQLLYAYPREKPRACPLSSQSMPHFGTRYVCQFPDQEEVRLFFPLHLWVKNVFLNQTRTQRVLFVDSVGLPAPPSIIKAMGGSQPGELQISWEEPAPEISDFLRYELRYGPRDPKNSTGPTVIQLIATETCCPALQRPHSASALDQSPCAQPTMPWQDGPKQTSPSREASALTAEGGSCLISGLQPGNSYWLQLRSEPDGISLGGSWGSWSLPVTVDLPGDAVALGLQCFTLDLKNVTCQWQQQDHASSQGFFYHSRARCCPRDRYPIWENCEEEEKTNPGLQTPQFSRCHFKSRNDSIIHILVEVTTAPGTVHSYLGSPFWIHQAVRLPTPNLHWREISSGHLELEWQHPSSWAAQETCYQLRYTGEGHQDWKVLEPPLGARGGTLELRPRSRYRLQLRARLNGPTYQGPWSSWSDPTRVETATETAW
modifications: The construct is described only in S1 Methods. The extracellular domain after the signal peptide is assumed as the SPR receptor; glycosylation is possible.

Legend:
Assay in all cases: SPR; steady-state fitting of TPOR binding; further details in S1 Methods (not shown)
Conditions in all cases: both partners purified
[1] = molecular target: Thrombopoietin receptor (TPOR) (UniProt P40238 26-635)
buto_a3_t2 = molecular target: buto_a3_t2
buto_a3 = molecular target: buto_a3

Row | Binder | Kd [1] | Kd (buto_a3_t2) | Kd (buto_a3)
1 | B1 | 4.09 ± 1.84 µM |  | 
2 | B2 |  | 0.88 ± 0.16 µM | 10.6 ± 1.49 µM
